Measurements taken from the DeepSol protein solubility set.

Experiment: soluble on expression in E. coli; label from the status in PepcDB or PDB records

Row | Sequence | soluble on expression in E. coli
1 | MNCAISGEVPEEPVVSKKSGLLYEKRLIQTHISDYGKCPVTGEPHTLDDIVPIKTGKIVKPKPLHTASIPGLLGTFQTEWDSLMLSNFALEQQLHTARQELSHALYQHDAACRVIARLKKERDESRQLLAEAERQLPAAPEVATSNAALSNGKRGIDDGEQGPNAKKMRLGISAEVITELTDCNAALSQQRKKRQIPKTLASVDALEKFTQLSSHPLHKTNKPGIFSMDILHSKDVIATGGIDTTAVLFDRPSGQILSTLTGHSKKVTSIKFVGDTDLVLTASSDKTVRIWGCSEDGNYTSRHTLKDHSAEVRAVTVHATNKYFVSASLDSTWCFYDLSSGLCLAQVTDASENDVNYTAAAFHPDGLILGTGTAQSIVKIWDVKSQANVAKFGGHNGEITSISFSENGYFLATAALDGVRLWDLRKLKNFRTFDFPDANSVEFDHSGSYLGIAASDIRVFQAASVKAEWNPIKTLPDLSGTGKATSVKFGLDSKYIAVGSMDRNLRIFGLPDDDNTEDSAQDS | soluble
2 | MSDSHHKPVWDRTHHAKMATGIGDPQCFKGMAGKSKFNVGDRVRIKDLPDLFYTRTMTYTRGATGTIVRLVYESPAAEDEAFGNEENVEWFYSIVFAQKDLWPEYSDTFANDTLETEIPERYLEKA | soluble
3 | MIVVKVGGAEGINYEAVAKDAASLWKEGVKLLLVHGGSAETNKVAEALGHPPRFLTHPGGQVSRLTDRKTLEIFEMVYCGLVNKRLVELLQKEGANAIGLSGLDGRLFVGRRKTAVKYVENGKVKVHRGDYTGTVEEVNKALLDLLLQAGYLPVLTPPALSYENEAINTDGDQIAALLATLYGAEALVYLSNVPGLLARYPDEASLVREIPVERIEDPEYLALAQGRMKRKVMGAVEAVKGGVKRVVFADGRVENPIRRALSGEGTVVR | soluble
4 | MEIIIVGGFLGSGKTTTLNHLITDALDHNLKTALIINEFGKMSVDSQLIHPTIPISEIVEGCICCAMKSNVSQQLHEIYLEHQPDLVFIECSGIAEPLAVVDACLTPVLAPITTIRSMLGIIDAKLYEKIETYPRDIQALFYEQLSYCSTLFVNKIDIADFNQVARLLRHLEVINRDANIQVGQWGELALNTLLNVKHLDAKQRGTLHHAINHQLIDTPRSQTKADFIERLTQLPQQVYRVKGFVRFTDSKLIHLVQYAEGEIELTPIQFKSDVPLYLVVIGKHLDAIELDLLEHHHHHH | not soluble
5 | SNAMNHSRESYDRLARELGGYRHPWARVLSGPDPELTFDLWLSRLLTPQTRVLEAGCGHGPDAARFGPQAARWAAYDFSPELLKLARANAPHADVYEWNGKGELPAGLGAPFGLIVSRRGPTSVILRLPELAAPDAHFLYVGPRLNVPEVPERLAAVGWDIVAEDHVSVLAHAPTWEDWQMRGEFMGKLARRADWDAEATVRGMPYREERHLVLARQLGVARKLGA | soluble
6 | MVSTESEIAVRIRGIYSTALTKLLMDRGFKIVQPSDVIAERFGIEKSYEDFDVDIYDKNHGVTIVGTKVEAVKKVFEEEFIDVFFRKLPYKLHGIYKGLVVKRDDRFVYVDIGNVIGTVLIEELPDAAEGDEVVVQVKKHNVLPHLSTLITIPGDYAVLIPKPIGVQRHVKISRKIKDPEERERLRILGLSVDLGEWGVLWRTAAAYKDWNTLRDELVRLSKIADKLKEAEKFSAPAEIIEGREIYEIEFGGGVKKKLDEIRNEVVPTIEGHHQFKSYDPEFTLAVDVAEGILAKLPSQRQKISKGFLEAIITSKGPKVGWIFTLNHVKPDGQIIKIGPGEVIEVSTDPLKVTIKRYLRPGKFYDGLEVPIESGDYAITEIEAGKWWFVHRYYDKDGNLKGEFYNINTPVEIYPDKARYVDLEVDIVRWPDGKKEIIDKEKLKEHYEEGIISEKLYKATLRIAQEVYDRLLEHHHHHH | not soluble
7 | MEGQENKVLFGLENVHYATYSETDGVITYDTPKPLPGGVEISVEPQGDMIKFYADNIVYYQAPNNQGYEGTLTIASIPEGFATDCLGEELDTVDGVLTEKSDAKPKPFALLFEFDGDVKSVRQVLYNCTASRPTVASSTLEHHHHHH | soluble
8 | MGSDKIHHHHHHMNKYIMLLMVSLLSACSSTPRKPIPDDPFYAPVYPDAPATQTAATGSIFLDSQASSLYSDIRAHKIGDIITVVLMESTQAKKSATNDIKKGSDMSMDPLFAGGGNVTIKGVPLDLKYKDAYNTKRESDADQSNSLAGSISANVMQVLSNGNLVIRGEKWISINNGDEFIRVTGIVRSQDIKPDNTIESVRVANARIQYSGTGTFADAQKVGWLGQFFLGEWWPF | not soluble
9 | MGNGMTKVLPGLYLGNFIDAKDLDQLGRNKITHIISIHESPQPLLQDITYLRIPVADTPEVPIKKHFKECINFIHCCRLNGGNCLVHCFAGISRSTTIVTAYVMTVTGLGWRDVLEAIKATRPIANPNPGFRQQLEEFGWASSQKLRRQLEERFGESPFRDEEELRALLPLCKRCRQGSATSASSAGPHSAASEGTVQRLVPRTPREAHRPLPLLARVKQTFSCLPRCLSRKGGK | soluble
10 | MGSDKIHHHHHHMSHNIKYRQLKAFRILAESGSFKHAADSLAVTQPSMSIMIRELESDLGVALIDRATRSAELTDAGRDFYQQIKGSLDQLEKAYSYANAAGKAEHGRVRIATLTSLAAEAVTTAIARMHAERPGIQIELMERTYFLALRRREVDLGVGILHEAHADLDFQYLFSDQLVVVTPKGHPLARQRQPLKHLGKYDVVVVSPGPSLEALQELDADCAPPVQVEQPSTAITMVRKGLGVTVTSSSATTGLDMRGLAAVPIPGTTRDVGVITLAQARLSPVASAFLRCLRHVHPAG | not soluble
11 | MNLPQNIRYRRYQDWTEEEIKSIKTNVALSPWHTTYHIEPKTGLLNDPNGFSYFNGKFNLFYQNWPFGAAHGLKSWIHTESEDLVHFKETGTVLYPDTSHDSHGAYSGSAYEIGDQLFLFYTGNVRDENWVRHPLQIGAFMDKKGNIQKFTDVLIKQPNDVTEHFRDPQIFNYKGQFYAIVGAQSLDKKGFIKLYKAVDNDIKNWQEVGNLDFGGSKSEYMIECPNLVFINEQPVLIYSPQGLSKSELDYHNIYPNTYKVCQSFDTEKPALVDASEIQNLDFGFECYATQAFNAPDGRVYAVSWIGLPDIDYPSDSYDYQGALSLVKELSLKHGKLYQYPVEAVRSLRSEKEAVTYKPETNNTYELELTFDSSSVNELLLFADNKGNGLAITVDTKMGTILIDRSKAGEQYALEFGSQRSCSIQAKETVVNIFVDKSIFEIFINKGEKVFTGRVFPNDKQTGIVIKSGKPSGNYYELKYLEHHHHHH | soluble
12 | MSLKNEIQFEVFGDYALFTDPLTKIGGEKLSYSVPTYQALKGIVESIYWKPTIIFTIDKLRVMKPIQMESKGVRPIDYGGGNTLAHYTYLKDVHYQVKAHFDFNFNRPDLAFDRNEGKHYSILQRSLKAGGRRDIFLGTRECQGYVAPCEFGSGSGYYDGQGEYRLGTMVHGFNYPDETGQNQLDVRLWPAVMNDGYIKFPKPEDCTMIRPIKEMEPKEFKRDDIQSVEQLSYEVGGEEGHHHHHH | soluble
13 | AHHHHHHGSVVKRTMTKKFLEEAFAGESMAHMRYLIFAEKAEQEGFPNIAKLFRAIAYAEFVHAKNHFIALGKLGKTPENLQMGIEGETFEVEEMYPVYNKAAEFQGEKEAVRTTHYALEAEKIHAELYRKAKEKAEKGEDIEIKKVYICPICGYTAVDEAPEYCPVCGAPKEKFVVFE | soluble
14 | MSLKNLGSPVFFFQERPGKDGKPFKMVKFRSMRDALDSDGIPLPDGERLTPFGKKLRAASLDELPELWNILKGEMSLVGPRPLLMQYLPLYDNFQNRRHEMKPGITGWAQVNGRNALSWDEKFACDVWYIDHFSLCLDIKILLLTVKKVLIKEGISAQGEATMPPFTGKRKLAVVGAGGHGKVVADLAAALGRYREIVFLDDRAQGSVNGFSVIGTTLLLENSLSPEQYDVAVAVGNNRIRRQIAEKAAALGFALPVLVHPDATVSPSATVGQGSVVMAKAVVQAGSVLKDGVIVNTAATVDHDCLLNAFVHISPGAHLSGNTHIGEESWIGTGACSRQQIRIGSRATIGAGAVVVRDVSDGMTVAGNPAKPLPRKNPETSTAEGHHHHHH | not soluble
15 | GMLAETDEYMAGGKRPARVYRVVNGIAVLPVTGTLVHRLGGMRPFSGMTGYDGIVACLQQAMADSQVRGILLDIDSPGGQAAGAFDCADMIYRLRQQKPVWALCNDTACSAAMLLASACSRRLVTQTSRIGSIGVMMSHVSYAGHLAQAGVDITLIYAGAHKVDGNQFEALPAEVRQDMQQRIDAARRMFAEKVAMYTGLSVDAVTGTEAAVFEGQSGIEAGLADELINASD | not soluble
